Patent publication US7521054

Target: mesothelin (UniProt Q13421)
Assay: cell-based or functional assay

UniProt Q13421, sequence (Q13421 other isoform, or with tags, fused parts or gaps limits assumed): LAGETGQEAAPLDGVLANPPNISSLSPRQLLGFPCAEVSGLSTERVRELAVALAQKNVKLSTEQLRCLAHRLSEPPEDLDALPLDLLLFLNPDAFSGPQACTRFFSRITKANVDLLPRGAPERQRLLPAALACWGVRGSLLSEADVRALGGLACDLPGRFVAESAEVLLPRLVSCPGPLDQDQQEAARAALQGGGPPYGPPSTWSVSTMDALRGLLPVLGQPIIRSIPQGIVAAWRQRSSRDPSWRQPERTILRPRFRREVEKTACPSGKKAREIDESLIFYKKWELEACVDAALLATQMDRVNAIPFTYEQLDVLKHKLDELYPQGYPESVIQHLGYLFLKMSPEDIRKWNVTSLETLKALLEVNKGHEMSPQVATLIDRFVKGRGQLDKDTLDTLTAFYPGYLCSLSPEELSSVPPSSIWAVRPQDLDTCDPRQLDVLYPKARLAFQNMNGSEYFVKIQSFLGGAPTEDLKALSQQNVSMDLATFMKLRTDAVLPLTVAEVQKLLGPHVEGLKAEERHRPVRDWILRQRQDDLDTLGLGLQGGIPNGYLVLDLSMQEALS

SS1(dsFv)-PE38 (from UniProt P11439 278-389; P11439 406-638)
IC50 (NG/ML), cytotoxic activity on A431-K5 cells: 0.63 ng/mL
